The values below come from patent US20210301011A1, “COMPOSITION FOR PROPHYLAXIS OR TREATMENT OF IL-8 RELATED DISEASES” (CHUGAI SEIYAKU KABUSHIKI KAISHA, priority 2016, published 2021).

Test [1] relates to post-surgical adhesion. The experiment in a line: Post-surgical adhesion-induced monkey model. Type of test: in vivo, cynomolgus monkeys. Details: key: ∘: Adhesion found; x: No adhesion. The following applies: 10 mg/kg i.v. one hour or less after surgery; laparoscopy 24 to 35 days after; per animal. Here is the method:
To prepare a post-surgical adhesion-induced model, female cynomolgus monkeys 9 to 16 years of age (provided by the Tsukuba Primate Research Center at the National Institutes of Biomedical Innovation, Health and Nutrition) were treated under anesthesia as follows. Anesthesia was performed using balanced anesthesia of ketamine/xylazine (mixed at an adequate ratio of about 2:1) and isoflurane. An incision of 5 to 6 cm was made in the median line of the abdominal wall. After opening the abdomen, a 1-cm incision was made on the uterine corpus and sutured with 4 stitches using a single suture. Then, the whole uterus was brushed five times with gauze. Next, a 1-cm incision was made to the right abdominal wall peritoneal part at 2 cm from the incised median line of the abdominal wall and sutured by running suture with 4 stitches using an absorbable suture. After suture, the sutured part was brushed five times with gauze. Likewise, the peritoneum of left abdominal wall was incised, sutured, and brushed with gauze. Finally, the median line of abdominal wall was sutured by running suture with 10 to 11 stitches. The entire steps were completed in one hour or less. The antagonist Antisedan (in roughly the same amount as that of xylazine) and the antibiotic cephradine were administered at the time of awakening after surgery. Then, the pain reliever Zalban was administered for two days after surgery, and the monkeys were observed regularly every day to confirm the absence of post-surgical abnormalities. At laparoscopic observation, anesthesia and post-surgical monitoring were also performed in the same way.
The control group was untreated. 24 to 35 days after administration of the anti-IL-8 antibody, laparoscopy was performed to observe the adhesion formed due to incision, suture, and blushing with gauze. The abdomen was incised in the median line under anesthesia, and laparoscopic observation was performed by inserting a trocar and then introducing a laparoscope. The laparoscope was connected to a video system (KARL STORZ) and a monitor. The video system was used for recording, and the monitor was used for intraperitoneal observation. The size of the adhesion was measured using a graduated bar or graduated forceps. The presence, range, and location of adhesion were assessed during laparoscopic observation. […] Although adhesion was found in individual No. 206 in the anti-IL-8 antibody administration group, no adhesion was found in the right and left abdominal wall peritoneum or at the uterine incision site in individual No. 201. […] Those skilled in the art will naturally appreciate that anti-IL-8 antibodies may exert a stronger adhesion formation-preventive effect by appropriately altering the timing of administration or such. […]

Test [2] relates to post-surgical adhesion. The experiment in a line: Adhesion after surgery (area surrounding the incision site in the abdominal wall) in endometriosis monkey models. Type of test: in vivo, cynomolgus monkeys. The following applies: 10 mg/kg; before vs six months after initiation of administration. The method, then: Specifically, adhesion to the area surrounding the incision site on the abdominal wall was compared before and after administration and evaluated by five evaluators on a three-point scale: (1) Improved, (2) Stable, and (3) Progressed. Ratings with a consensus among three or more of the five evaluators were adopted; otherwise (2) Stable was used. Evaluations were carried out on six monkeys in the vehicle group as well as seven monkeys in the antibody […]/[…]-[…] administration group. […] The monkey with “Progressed” was an individual in which the blood concentration of antibody […]/[…]-[…] had decreased due to anti-antibody production.

B1: H1009/L395-F1974m: H1009-F1974m (SEQ ID NO:36) heavy chain, L395-kOMT light chain; the anti-IL-8 antibody of Table 29 (antibody)
heavy: QVQLVESGGGLVQPGGSLRLSCAASGFTFSDYYLSWVRQAPGKGLEWVGLIRNKDNYHTPEYSASVKGRFTISRDDSKNSLYLTMSDLKTEDTAVYYCARENHRYDVELAYWGQGTLVTVSSASTKGPSVFPLAPSSKSTSGGTAALGCLVKDYFPEPVTVSWNSGALTSGVHTFPAVLQSSGLYSLSSVVTVPSSSLGTQTYICNVNHKPSNTKVDKKVEPKSCDKTHTCPPCPAPELRRGPSVFLFPPKPKDTLMISRTPEVTCVVVDVSHEDPEVKFNWYVDGVEVHNAKTKPREEQYNSTYRVVSVLTVLHQDWLNGKEYKCKVSNKGLPSSIEKTISKAKGQPREPQVYTLPPSREEMTKNQVSLTCLVKGFYPSDIAVEWESNGQPENNYKTTPPVLDSDGSFFLYSKLTVDKSRWQQGNVFSCSVLHEALHAHTTRKELSLSP
light: DIQMTQSPSSLSASVGDRVTITCRASEIIYSYLAWYQQKPGKAPKLLIYKAKTHADGVPSRFSGSGSGTDFTFTISSLQPEDIATYYCKHHFGFPRTFGQGTKVEIKRTVAAPSVFIFPPSDEQLKSGTASVVCLLNNFYPREAKVQWKVDNALQSGNSQESVTEQDSKDSTYSLSSTLTLSKADYEKHKVYACEVTHQGLSSPVTKSFNRGEC
For the molecule B1, in test [1], the “adhesion at incision site: Abdominal wall, Median line” value is recorded as “∘”; the “adhesion at incision site: Abdominal wall, Peritoneum (L)” value is “∘ and x”; the “adhesion at incision site: Abdominal wall, Peritoneum (R)” value was “∘ and x”; the “adhesion at incision site: Uterus” value was “∘ and x”. In test [2], the “post-surgical adhesion: Improved (monkeys/total)” value was 6/7, the “post-surgical adhesion: Progressed (monkeys/total)” value is listed as 1/7 and the “post-surgical adhesion: Stable (monkeys/total)” value was 0/7.
